# Measured values: US20220307001
# Assays:
# [1] = tested on: xCas9 3.7 nuclease (evolved SpCas9) (Streptococcus pyogenes); assay: cell_activity; details: GUIDE-seq HEK293T
# [2] = tested on: xCas9(3.7)-BE3 (Streptococcus pyogenes); assay: cell_activity; details: HEK293T; PAM GAA; SD 0.75; >50-fold over SpCas9-BE3
substance,measurement,setting,value
"EMX1 site sgRNA spacer ; EMX1 site target, GGG PAM",activity (on-target reads),"[1]; PAM GGG, zero off-target reads",6870
FANCF CGT site sgRNA spacer ; FANCF CGT PAM target,activity (on-target reads),"[1]; PAM CGT, no off-target reads",3060
FANCF GAA site sgRNA spacer ; FANCF GAA PAM target,activity (on-target reads),"[1]; PAM GAA, no off-target reads",3630
same,activity (% C-to-T editing),[2],10
